Data published in US20120277164A1 (IMPERIAL INNOVATIONS, published 2012).
Values belong to the molecule of their own block, whether it stands above or below them. Square brackets hold non-standard residues; d marks the D form. * marks the point of attachment. Fmoc = O=C(OCC1c2ccccc2-c2ccccc21)*; Cbz = O=C(OCc1ccccc1)*; Bz = O=C(c1ccccc1)*; βAla = NCCC(=O)O

Columns and labels:
[1] = target: T1, Gadd45β/MKK7 complex (biotin-hGadd45β with coated GST-MKK7, ELISA format) (human) (UniProt O75293); experiment: competition ELISA; coated GST-MKK7, biotin-hGadd45β; single dose
T1 sequence (biotinylated (sites not stated), looked up) 1: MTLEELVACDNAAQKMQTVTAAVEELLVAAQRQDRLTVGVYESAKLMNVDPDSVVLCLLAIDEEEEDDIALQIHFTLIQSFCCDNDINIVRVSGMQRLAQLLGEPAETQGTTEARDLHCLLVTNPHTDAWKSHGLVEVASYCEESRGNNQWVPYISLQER
T1 sequence (biotinylated (sites not stated), looked up) 2: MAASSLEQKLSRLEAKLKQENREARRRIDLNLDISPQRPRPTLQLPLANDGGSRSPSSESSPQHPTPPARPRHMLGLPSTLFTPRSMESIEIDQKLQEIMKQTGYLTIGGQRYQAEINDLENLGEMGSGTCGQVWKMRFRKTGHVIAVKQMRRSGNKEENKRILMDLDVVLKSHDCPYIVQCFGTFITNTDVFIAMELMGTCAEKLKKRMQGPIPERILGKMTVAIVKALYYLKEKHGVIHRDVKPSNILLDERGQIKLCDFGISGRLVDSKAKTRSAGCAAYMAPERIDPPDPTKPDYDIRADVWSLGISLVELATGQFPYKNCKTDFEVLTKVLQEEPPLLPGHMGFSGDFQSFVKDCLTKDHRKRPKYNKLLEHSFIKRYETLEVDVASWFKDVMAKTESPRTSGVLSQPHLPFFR

[2] = target: T1, Gadd45β/MKK7 complex (biotin-hGadd45β with coated GST-MKK7, ELISA format) (human); experiment: competition ELISA; coated GST-MKK7 42 nM, biotin-hGadd45β 21 nM
[3] = target: T1, Gadd45β/MKK7 complex (biotin-hGadd45β with coated GST-MKK7, ELISA format) (human); experiment: derived from the in vitro ELISA competition IC50 (Gadd45β/MKK7)
[4] = target: T1, Gadd45β/MKK7 complex (biotin-hGadd45β with coated GST-MKK7, ELISA format) (human); experiment: competition ELISA; coated MKK7 42 nM, biotin-hGadd45β 21 nM, competitor 42 nM nominal
[5] = target: T1, Gadd45β/MKK7 complex (biotin-hGadd45β with coated GST-MKK7, ELISA format) (human); experiment: competition ELISA; coated MKK7, biotin-hGadd45β (FIG. 3C)
[6] = target: T2, Gadd45β/MKK7 complex (biotin-hGadd45β with coated GST-MKK7, ELISA format) (human, UniProt O75293 1-160; O14733 1-419, biotinylated (sites not given)); experiment: competition ELISA; coated MKK7 42 nM, biotin-hGadd45β 21 nM, competitor 42 nM nominal
T2 construct: not shown: glutathione S-transferase (GST) fusion partner
T2 sequence (looked up) 1: T1 sequence (biotinylated (sites not stated), looked up) 1
T2 sequence (looked up) 2: T1 sequence (biotinylated (sites not stated), looked up) 2

[7] = target: T2, Gadd45β/MKK7 complex (biotin-hGadd45β …); experiment: competition ELISA; coated GST-MKK7, biotin-hGadd45β; single dose
[8] = target: T2, Gadd45β/MKK7 complex (biotin-hGadd45β …); experiment: as above; remark: listed apart in the source
[9] = target: T1, Gadd45β/MKK7 complex (biotin-hGadd45β with coated GST-MKK7, ELISA format) (human); experiment: competition ELISA after 48-hr pre-incubation of the peptide with human serum at 37 °C
[10] = target: T1, Gadd45β/MKK7 complex (biotin-hGadd45β with coated GST-MKK7, ELISA format) (human); experiment: ELISA competition assay: coated MKK7, soluble biotin-hGadd45β; peptide pre-incubated 48 hr with human serum at 37° C.; after 48-hr incubation with human serum at 37° C.

B1: Ac-YERFLys(Z)-NH2 (peptide)
peptide: Ac-YERFK(Cbz)-NH2
SMILES: CC(=O)N[C@@H](Cc1ccc(O)cc1)C(=O)N[C@@H](CCC(=O)O)C(=O)N[C@@H](CCCNC(=N)N)C(=O)N[C@@H](Cc1ccccc1)C(=O)N[C@@H](CCCCNC(=O)OCc1ccccc1)C(N)=O
% Inhibition of Gadd45β-MKK7 binding [1]: 6%

B2: DTP1, Acetyl-(D-Tyr)-(D-Asp)-(D-His)-(D-Phe)-NH2 (peptide)
peptide: Ac-[dY][dD][dH][dF]-NH2
SMILES: CC(=O)N[C@H](Cc1ccc(O)cc1)C(=O)N[C@H](CC(=O)O)C(=O)N[C@H](Cc1c[nH]cn1)C(=O)N[C@H](Cc1ccccc1)C(N)=O
IC50 [5]: 220 pM

Molecule: Bz-YDHQ-NH2 [Benzoic acid-YDHQ-NH2]
% Inhibition of Gadd45β-MKK7 binding [1]: 1%

Molecule: {Fmoc-βAla-βAla}-YDHF-NH2 (also called Fmoc-LTP1) [Fmoc(βAla)2-YDHF-NH2]
% Inhibition of Gadd45β-MKK7 binding [6]: 99%

B3: Fmoc(βAla)2-YDHC-NH2 (peptide)
peptide: {Fmoc-βAla-βAla}-YDHC-NH2
SMILES: NC(=O)[C@H](CS)NC(=O)[C@H](Cc1c[nH]cn1)NC(=O)[C@H](CC(=O)O)NC(=O)[C@H](Cc1ccc(O)cc1)NC(=O)CCNC(=O)CCNC(=O)OCC1c2ccccc2-c2ccccc21
% Inhibition of Gadd45β-MKK7 binding [6]: 44%

Molecule: Ac-YEHF-NH2 [Ac-YEHF-NH2]
% Inhibition of Gadd45β-MKK7 binding [7]: 52%
% Inhibition of Gadd45β-MKK7 binding [8]: 23%

B8: Fmoc(βAla)2-YDHA-NH2 (peptide)
peptide: {Fmoc-βAla-βAla}-YDHA-NH2
SMILES: C[C@H](NC(=O)[C@H](Cc1c[nH]cn1)NC(=O)[C@H](CC(=O)O)NC(=O)[C@H](Cc1ccc(O)cc1)NC(=O)CCNC(=O)CCNC(=O)OCC1c2ccccc2-c2ccccc21)C(N)=O
% Inhibition of Gadd45β-MKK7 binding [6]: 15%

B12: Ac-YDHFLys(Z)-NH2 (peptide)
peptide: Ac-YDHFK(Cbz)-NH2
SMILES: CC(=O)N[C@@H](Cc1ccc(O)cc1)C(=O)N[C@@H](CC(=O)O)C(=O)N[C@@H](Cc1c[nH]cn1)C(=O)N[C@@H](Cc1ccccc1)C(=O)N[C@@H](CCCCNC(=O)OCc1ccccc1)C(N)=O
% Inhibition of Gadd45β-MKK7 binding [1]: 8%

Molecule: {3‑OH‑4MeO‑benzoic acid}-YDHQ-NH2 (not fully specified) [3-OH-4MeO-Benzoid acid-YDHQ-NH2]
% Inhibition of Gadd45β-MKK7 binding [1]: 7%

B14: DTP2, Acetyl-(D-Tyr)-(D-Glu)-(D-Arg)-(D-Phe)-NH2 (peptide)
peptide: Ac-[dY][dE][dR][dF]-NH2
SMILES: CC(=O)N[C@H](Cc1ccc(O)cc1)C(=O)N[C@H](CCC(=O)O)C(=O)N[C@H](CCCNC(=N)N)C(=O)N[C@H](Cc1ccccc1)C(N)=O
IC50 [5]: 190 pM

Molecule: Ac-YDHQ-NH2 [Ac-YDHQ-NH2]
% Inhibition of Gadd45β-MKK7 binding [1]: 99%

B15: Ac-YDHQLys(Z)-NH2 (peptide)
peptide: Ac-YDHQK(Cbz)-NH2
SMILES: CC(=O)N[C@@H](Cc1ccc(O)cc1)C(=O)N[C@@H](CC(=O)O)C(=O)N[C@@H](Cc1c[nH]cn1)C(=O)N[C@@H](CCC(N)=O)C(=O)N[C@@H](CCCCNC(=O)OCc1ccccc1)C(N)=O
% Inhibition of Gadd45β-MKK7 binding [1]: 2%

Molecule: Ac-AERF-NH2 [Ac-AERF-NH2]
% Inhibition of Gadd45β-MKK7 binding [1]: 7%

Other lines, results leading:

% Inhibition of Gadd45β-MKK7 binding [1]: 19%
Molecule: Fmoc-YDFQ-NH2

IC50 [2]: 157 pM
Ligand Efficiency [3]: -0.24
Molecule: mDTP3 (Ac-D-Tyr-D-Arg-D-Phe-NH2) (peptide)

% Inhibition of Gadd45β-MKK7 binding [4]: 26%
Molecule: Fmoc(βAla)2-YDHQ-NH2 as printed in row r19 of Table I

% Inhibition of Gadd45β-MKK7 binding [1]: 3%
Molecule: Cbz-YD(OMe)HQ-NH2 [Z-YD(OMe)HQ-NH2]

% Inhibition of Gadd45β-MKK7 binding [6]: 0%
B4: Fmoc(βAla)2-YDHD-NH2 (peptide)
peptide: {Fmoc-βAla-βAla}-YDHD-NH2
SMILES: NC(=O)[C@H](CC(=O)O)NC(=O)[C@H](Cc1c[nH]cn1)NC(=O)[C@H](CC(=O)O)NC(=O)[C@H](Cc1ccc(O)cc1)NC(=O)CCNC(=O)CCNC(=O)OCC1c2ccccc2-c2ccccc21

% Inhibition of Gadd45β-MKK7 binding [6]: 16%
B5: Fmoc(βAla)2-YDHP-NH2 (peptide)
peptide: {Fmoc-βAla-βAla}-YDHP-NH2
SMILES: NC(=O)[C@@H]1CCCN1C(=O)[C@H](Cc1c[nH]cn1)NC(=O)[C@H](CC(=O)O)NC(=O)[C@H](Cc1ccc(O)cc1)NC(=O)CCNC(=O)CCNC(=O)OCC1c2ccccc2-c2ccccc21

% Inhibition of Gadd45β-MKK7 binding [6]: 33%
B6: Fmoc(βAla)2-YDHL-NH2 (peptide)
peptide: {Fmoc-βAla-βAla}-YDHL-NH2
SMILES: CC(C)C[C@H](NC(=O)[C@H](Cc1c[nH]cn1)NC(=O)[C@H](CC(=O)O)NC(=O)[C@H](Cc1ccc(O)cc1)NC(=O)CCNC(=O)CCNC(=O)OCC1c2ccccc2-c2ccccc21)C(N)=O

% Inhibition of Gadd45β-MKK7 binding [6]: 0%
Molecule: {Fmoc-βAla-βAla}-YDHQ-NH2 [Fmoc(βAla)2-YDHQ-NH2]

% Inhibition of Gadd45β-MKK7 binding [6]: 63%
B7: Fmoc(βAla)2-YDHY-NH2 (peptide)
peptide: {Fmoc-βAla-βAla}-YDHY-NH2
SMILES: NC(=O)[C@H](Cc1ccc(O)cc1)NC(=O)[C@H](Cc1c[nH]cn1)NC(=O)[C@H](CC(=O)O)NC(=O)[C@H](Cc1ccc(O)cc1)NC(=O)CCNC(=O)CCNC(=O)OCC1c2ccccc2-c2ccccc21

% Inhibition of Gadd45β-MKK7 binding [6]: 14%
B9: Fmoc(βAla)2-YDHM-NH2 (peptide)
peptide: {Fmoc-βAla-βAla}-YDHM-NH2
SMILES: CSCC[C@H](NC(=O)[C@H](Cc1c[nH]cn1)NC(=O)[C@H](CC(=O)O)NC(=O)[C@H](Cc1ccc(O)cc1)NC(=O)CCNC(=O)CCNC(=O)OCC1c2ccccc2-c2ccccc21)C(N)=O

% Inhibition of Gadd45β-MKK7 binding [6]: 0%
B10: Fmoc(βAla)2-YDHS-NH2 (peptide)
peptide: {Fmoc-βAla-βAla}-YDHS-NH2
SMILES: NC(=O)[C@H](CO)NC(=O)[C@H](Cc1c[nH]cn1)NC(=O)[C@H](CC(=O)O)NC(=O)[C@H](Cc1ccc(O)cc1)NC(=O)CCNC(=O)CCNC(=O)OCC1c2ccccc2-c2ccccc21

% Inhibition of Gadd45β-MKK7 binding [6]: 40%
B11: Fmoc(βAla)2-YDHH-NH2 (peptide)
peptide: {Fmoc-βAla-βAla}-YDHH-NH2
SMILES: NC(=O)[C@H](Cc1c[nH]cn1)NC(=O)[C@H](Cc1c[nH]cn1)NC(=O)[C@H](CC(=O)O)NC(=O)[C@H](Cc1ccc(O)cc1)NC(=O)CCNC(=O)CCNC(=O)OCC1c2ccccc2-c2ccccc21

IC50 [2]: 190 pM
IC50 [9]: 180 pM
Ligand Efficiency [3]: -0.26
IC50 [10]: 180 pM
Molecule: Cbz-[dY][dE][dR][dF]-NH2 [Z-DTP2 (Z-D-Tyr-D-Glu-D-Arg-D-Phe-NH2)]

IC50 [2]: 220 pM
IC50 [9]: 190 pM
IC50 [10]: 190 pM
Molecule: Cbz-[dY][dD][dH][dF]-NH2 [Z-Tyr-Asp-His-Phe-NH2 (Z-DTP1)]

% Inhibition of Gadd45β-MKK7 binding [4]: 2%
B13: Fmoc(βAla)2-YDHR-NH2 (peptide)
peptide: {Fmoc-βAla-βAla}-YDHR-NH2
SMILES: N=C(N)NCCC[C@H](NC(=O)[C@H](Cc1c[nH]cn1)NC(=O)[C@H](CC(=O)O)NC(=O)[C@H](Cc1ccc(O)cc1)NC(=O)CCNC(=O)CCNC(=O)OCC1c2ccccc2-c2ccccc21)C(N)=O
